The record followed here is patent publication US20260265349A1 (GRIFFITH UNIVERSITY, published 2026).

Several values for one entry are separate records, joined by “and”; a condition that tells them apart may be missing. Equal values may be shown once. Read-outs that look alike come from different tables or passages of the source.

For experiment [1], the target named is T1, norovirus GII.4 Sydney-2012 virus-like particles (norovirus GII.4 Sydney-2012, UniProt P54635 1-538).
T1 construct: also called GII.4 Sydney-2012 VLPs; GII.4 VLPs
T1 chain: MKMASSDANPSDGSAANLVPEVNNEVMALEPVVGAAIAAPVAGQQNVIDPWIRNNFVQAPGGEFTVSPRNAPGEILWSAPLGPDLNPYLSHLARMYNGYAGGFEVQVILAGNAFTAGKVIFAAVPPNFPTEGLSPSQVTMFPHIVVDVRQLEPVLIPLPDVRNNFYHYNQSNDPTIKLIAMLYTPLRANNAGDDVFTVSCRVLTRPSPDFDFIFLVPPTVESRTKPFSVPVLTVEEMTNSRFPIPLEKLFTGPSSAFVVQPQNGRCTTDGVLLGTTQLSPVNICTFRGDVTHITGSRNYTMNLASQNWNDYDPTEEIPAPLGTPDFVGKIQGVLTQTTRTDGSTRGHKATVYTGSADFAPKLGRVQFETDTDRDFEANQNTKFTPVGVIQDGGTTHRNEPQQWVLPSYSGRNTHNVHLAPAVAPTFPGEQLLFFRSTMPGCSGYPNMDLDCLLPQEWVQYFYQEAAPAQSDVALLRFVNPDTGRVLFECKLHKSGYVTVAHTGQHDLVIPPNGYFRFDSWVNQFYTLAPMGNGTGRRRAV
The experiment in a line: direct ELISA on coated VLPs.

For experiment [2], the target named is T2, norovirus GII.4 Sydney-2012 P domain (norovirus GII.4 Sydney-2012).
T2 construct: also called GII.4 P domain
T2 chain: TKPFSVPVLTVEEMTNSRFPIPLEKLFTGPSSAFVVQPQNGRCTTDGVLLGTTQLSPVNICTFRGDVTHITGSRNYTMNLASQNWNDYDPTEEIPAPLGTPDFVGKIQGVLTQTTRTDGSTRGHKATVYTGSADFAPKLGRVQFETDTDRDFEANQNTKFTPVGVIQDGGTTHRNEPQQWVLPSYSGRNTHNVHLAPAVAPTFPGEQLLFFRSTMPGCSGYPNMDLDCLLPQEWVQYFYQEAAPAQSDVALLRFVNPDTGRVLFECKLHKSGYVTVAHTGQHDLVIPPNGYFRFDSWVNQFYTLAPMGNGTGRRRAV
The experiment in a line: ITC, nanobody into P domain, 25 C. On the technique in general: In ITC the heat of successive injections is recorded.
Experimental: (§1) Isothermal calorimetry (ITC) experiments were done using an ITC-200 (Malvern). Samples were prepared in PBS and filtered prior to the experiments. […] Injections were performed until saturation was achieved. To correct for heats of dilution from titrants control experiments were performed by titrating nanobodies into PBS. The heat associated with the control titration was subtracted from raw binding data prior to fitting. The data was fitted using a single set-binding model (Origin 7.0 software). Nanobody binding sites on the P domains were assumed to be identical. All ITC experiments were performed in triplicate with the average and standard deviation calculated.

Experiment [3] concerns the target T1, norovirus GII.4 Sydney-2012 virus-like …. Nature of the experiment: direct ELISA, VLPs coated at 2 µg/mL, His-tagged nanobody detected with anti-His-HRP, OD490.
The target is the same in experiment [4]. Nature of the experiment: blocking ELISA: VLPs pre-incubated with nanobody, attachment to PGM (HBGA) coated plate.
Experiment [5] deals with T3, norovirus GII.10 Vietnam 026 virus-like particles (norovirus GII.10 Vietnam 026).
T3 construct: also called GII.10 VLPs
T3 chain: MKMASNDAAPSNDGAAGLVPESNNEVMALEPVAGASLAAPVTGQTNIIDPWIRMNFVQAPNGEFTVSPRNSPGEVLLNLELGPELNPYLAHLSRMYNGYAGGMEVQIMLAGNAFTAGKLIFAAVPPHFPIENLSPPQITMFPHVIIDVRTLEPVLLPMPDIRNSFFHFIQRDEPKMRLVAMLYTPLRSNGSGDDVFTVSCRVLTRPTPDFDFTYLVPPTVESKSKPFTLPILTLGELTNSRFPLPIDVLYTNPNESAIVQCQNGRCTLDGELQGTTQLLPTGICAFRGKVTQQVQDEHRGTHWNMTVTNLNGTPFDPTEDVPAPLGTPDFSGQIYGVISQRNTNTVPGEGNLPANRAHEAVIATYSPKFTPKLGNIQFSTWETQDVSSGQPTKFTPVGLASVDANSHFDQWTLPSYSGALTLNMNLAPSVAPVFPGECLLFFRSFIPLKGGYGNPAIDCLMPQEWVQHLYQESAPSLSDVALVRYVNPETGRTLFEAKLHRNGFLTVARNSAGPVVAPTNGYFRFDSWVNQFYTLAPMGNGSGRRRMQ
The experiment in a line: direct ELISA on coated VLPs, heat map of OD492.

Experiment [6] deals with T4, norovirus GII.17 Kawasaki308 virus-like particles (norovirus GII.17 Kawasaki308).
T4 construct: also called GII.17 Kawasaki308 VLPs; GII.17 VLPs
T4 chain: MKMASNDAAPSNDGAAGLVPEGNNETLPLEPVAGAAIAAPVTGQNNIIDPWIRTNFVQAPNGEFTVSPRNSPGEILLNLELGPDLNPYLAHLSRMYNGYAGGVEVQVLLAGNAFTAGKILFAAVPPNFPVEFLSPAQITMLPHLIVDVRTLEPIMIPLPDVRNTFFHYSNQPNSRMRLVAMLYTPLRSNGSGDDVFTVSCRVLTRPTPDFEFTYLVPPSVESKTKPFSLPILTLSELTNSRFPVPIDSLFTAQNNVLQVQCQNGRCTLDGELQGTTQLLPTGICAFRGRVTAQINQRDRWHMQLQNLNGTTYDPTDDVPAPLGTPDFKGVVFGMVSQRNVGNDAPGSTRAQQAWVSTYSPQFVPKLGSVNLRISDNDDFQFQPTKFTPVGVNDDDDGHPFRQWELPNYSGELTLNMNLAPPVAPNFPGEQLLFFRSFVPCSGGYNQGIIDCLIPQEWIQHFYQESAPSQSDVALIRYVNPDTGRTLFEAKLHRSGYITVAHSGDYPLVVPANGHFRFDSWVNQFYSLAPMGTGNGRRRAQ
The experiment in a line: direct ELISA on coated VLPs, heat map of OD492. (ELISA stands for enzyme-linked immunosorbent assay.)

The target in experiment [7] is T3, norovirus GII.10 Vietnam 026 virus-like …. The experiment in a line: direct ELISA on coated VLPs, heat map of OD492.
For experiment [8], the target named is T1, norovirus GII.4 Sydney-2012 virus-like …. Nature of the experiment: direct ELISA on coated VLPs, heat map of OD492.
Experiment [9] concerns the target T4, norovirus GII.17 Kawasaki308 virus-like …. Nature of the experiment: direct ELISA on coated VLPs.
Experiment [10] addresses T5, norovirus GII.17 Kawasaki308 P domain (norovirus GII.17 Kawasaki308).
T5 construct: also called GII.17 P domain
T5 chain: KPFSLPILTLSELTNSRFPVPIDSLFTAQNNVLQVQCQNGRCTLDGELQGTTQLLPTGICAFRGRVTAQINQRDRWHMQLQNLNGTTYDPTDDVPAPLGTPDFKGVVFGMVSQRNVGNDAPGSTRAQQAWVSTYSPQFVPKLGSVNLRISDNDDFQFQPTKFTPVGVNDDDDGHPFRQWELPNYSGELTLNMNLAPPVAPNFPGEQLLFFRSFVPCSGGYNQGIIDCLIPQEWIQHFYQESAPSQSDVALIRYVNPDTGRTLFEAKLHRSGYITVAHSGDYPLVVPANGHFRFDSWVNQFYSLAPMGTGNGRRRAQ
The experiment in a line: ITC, nanobody into P domain, 25 C.
Experimental: as §1

In experiment [11] the target is T4, norovirus GII.17 Kawasaki308 virus-like …. Nature of the experiment: blocking ELISA: VLPs pre-incubated with nanobody, attachment to PGM (HBGA) coated plate.

B1: NB-76 single domain antibody (VHH, not shown: small tags and cut ends)
VHH: QVQLQESGGGLVQAGGSLRLSCAASGTIFSIDAFGWYRQAPGKQREWVAGITSGSSTIYADFVKGRFTISRDNAKNTVFLQMNSLKPEDTAVYYCNRAKPPTYYSLEPWGKGTQVTVSS
notes: also called GII.4 nanobody
Take B1: the “nanobody concentration at the cut-off (OD490 0.15)” value (“nanobody concentration” below) in experiment [1] stood at 0.38 µg/mL. Moreover, in [2], the “+TΔS” value came to 2.22 kcal/mol; the affinity, expressed as Kd, was 56.7 nM; the ΔG was -9.89 kcal/mol; the ΔH was -12.1 kcal/mol. For the same molecule, the “EC50 (read off the curve)” value in [3] is approximately 2 µg/mL. The same molecule returned an IC50 in [4] of 1.42 µg/mL. Also, in [5], the binding result is recorded as “no binding”. For the same molecule, the binding result in [6] was “no binding”.

B2: NB-2 single domain antibody (VHH)
VHH: QVQLQESGGGLVQAGGSLRLSCAASGRFFSSYAMGWFRQAPGKEREFVAAISWSGGSTYYADSVKGRFTTSRDNAKNTVYLLMNSLKPEDTAVYYCAAAREGAYYPDSYYRTVRYDYWGQGTQVTVSS
notes: also called GII.17 nanobody; not shown: C-terminal His tag ('His-tagged nanobodies')
In the case of B2, the binding result in [7] was “no binding”. Further, the binding result in experiment [8] is “no binding”. The “nanobody concentration” value in [9] turned out to be 0.78 µg/mL. In addition, in [10], the “+TΔS” value was 6.14 kcal/mol, binding was characterised by a dissociation constant (Kd) of 7.5 nM, the ΔG is -11.1 kcal/mol and the ΔH is -17.2 kcal/mol. In addition, the IC50 in experiment [11] was 0.85 µg/mL and 0.84 µg/mL.

B3: NB-7 single domain antibody (VHH)
VHH: QVQLQESGGGLVQAGGSLRLSCAASGRTFSSYRMGWYRQAPGKEREFVAAITGSGDSTNYADSVKGRFTVSGNSARNLVYLQMNSLKPEDTAVYLCVAYRTGGPPQWGQGTQVTVSS
notes: as for B2
For the molecule B3, the binding result in experiment [7] was “no binding”. In experiment [8], the binding result is reported as “no binding”. For the same molecule, the “nanobody concentration” value in [9] came to 1.56 µg/mL. In [10], the “+TΔS” value was 10.2 kcal/mol, the equilibrium dissociation constant (Kd) was determined as 40.9 nM, the ΔG was -10.1 kcal/mol and the ΔH is -20.3 kcal/mol. The 50% inhibitory concentration (IC50) in experiment [11] stood at 0.88 µg/mL.

B4: NB-45 single domain antibody (VHH)
VHH: QVQLQESGGGLVQAGGSLRLSCTVSGRTDSESTMGWFRQAAGKGREFVAAMNWRYATTYHTDSVKGRFTISKDSAKNTMYLQMNSLKPEDTAVYYCAHRYIYGSLSDSGSYDNWGQGTQVTVSS
notes: as for B2
With B4, in experiment [7], the binding result is “no binding”. For the same molecule, the binding result in experiment [8] is “no binding”. Besides, in experiment [10], the “+TΔS” value was -4.4 kcal/mol, the dissociation constant (Kd) was determined as 101 nM, the ΔG is -9.82 kcal/mol and the ΔH is -5.43 kcal/mol. The molecule further registered an IC50 in [11] of 0.46 µg/mL.

As usually defined, the Kd is the constant that tells how readily two partners part at equilibrium. Low values mean tighter binding, high ones weaker binding. Broadly, the EC50 (read off the curve) is the midpoint of the concentration-response curve. A higher EC50 (read off the curve) goes with weaker potency. As usually defined, the IC50 is the concentration that gives 50% inhibition. High values mean weaker potency in that assay, low ones greater potency in that assay.
